# According to patent publication US20200216495A1 (ADRX, published 2020):
# Where “and” joins values, the source holds several entries; their conditions need not be identical. Identical values can stand only once. Square brackets hold non-standard residues; d marks the D form. Ends that are not written are not given here. dNle = CCCC[C@@H](N)C(=O)O
# Molecular target: Tau40 P301L protein (human)
# Assay: cell-based or functional assay
row,"IC50, Tau40 assay (ThT)",Binder
1,1.21 µM and 1.68 µM,[dR][dL][dK][dI][dR][dW] [rlkirw (PEPTIDE ID NO: 23)]
2,1.24 µM,[dF][dR][dL][dK][dL][dR][dH][dW] [frlklrhw (PEPTIDE ID NO: 116)]
3,1.36 µM,[dW][dR][dL][dK][dF][dR][dW] [wrlkfrw (PEPTIDE ID NO: 263)]
4,1.33 µM,[dW][dR][dL][dR][dI][dH][dT] [wrlriht (PEPTIDE ID NO: 262)]
5,1.26 µM and 1.31 µM,[dF][dH][dI][dR][dI][dR][dH][dW] [fhirirhw (PEPTIDE ID NO: 138)]
6,1.17 µM and 1.57 µM,[dM][dR][dL][dK][dV][dR][dW] [mrlkvrw (PEPTIDE ID NO: 254)]
7,1.13 µM,[dW][dW][dR][dF][dH][dW][dR] [wwrfhwr (PEPTIDE ID NO: 43)]
8,1.45 µM,[dL][dK][dI][dR][dI][dH][dY][dA] [lkirihya (PEPTIDE ID NO: 269)]
9,1.42 µM and 1.07 µM,[dL][dK][dI][dR][dL][dH][dH][dW] [lkirlhhw (PEPTIDE ID NO: 143)]
10,1.19 µM and 1.1 µM,[dL][dR][dI][dR][dI][dK][dH][dY] [lririkhy (PEPTIDE ID NO: 145)]
11,1.11 µM,[dW][dL][dR][dV][dQ][dV][dK][dL][dW] [wlrvqvklw (PEPTIDE ID NO: 416)]
12,1.49 µM,[dW][dR][dL][dR][dI][dA][dW] [wrlriaw (PEPTIDE ID NO: 272)]
13,1.34 µM,[dF][dK][dI][dH][dL][dR][dH][dW] [fkihlrhw (PEPTIDE ID NO: 124)]
14,1.31 µM,[dF][dR][dV][dR][dI][dR][dH][dW] [frvrirhw (PEPTIDE ID NO: 118)]
15,1.37 µM and 1.46 µM,[dF][dR][dI][dK][dL][dR][dW] [friklrw (PEPTIDE ID NO: 47)]
16,1.11 µM,[dL][dK][dI][dR][dI][dH][dY][dF] [lkirihyf (PEPTIDE ID NO: 250)]
17,1.38 µM and 2.08 µM,[dF][dW][dL][dK][dL][dR][dW][dF] [fwlklrwf (PEPTIDE ID NO: 15)]
18,1.46 µM,[dR][dW][dR][dW][dR][dW] [rwrwrw (PEPTIDE ID NO: 17)]
19,1.25 µM and 0.67 µM,[dL][dK][dI][dR][dI][dH][dY][dH] [lkirihyh (PEPTIDE ID NO: 147)]
20,1.24 µM and 1.31 µM,[dF][dR][dI][dR][dI][dH][dH][dW] [fririhhw (PEPTIDE ID NO: 115)]

row,"IC50, Tau40 assay (ThT)",Binder
1,1.49 µM,[dW][dQ][dL][dK][dV][dR][dW] [wqlkvrw (PEPTIDE ID NO: 273)]
2,1.2 µM and 1.47 µM,[dF][dR][dL][dR][dI][dH][dW] [frlrihw (PEPTIDE ID NO: 270)]
3,1.41 µM,[dH][dR][dL][dK][dV][dR][dW][dW] [hrlkvrww (PEPTIDE ID NO: 265)]
4,1.4 µM and 1.49 µM,[dR][dI][dK][dI][dR][dW] [rikirw (PEPTIDE ID NO: 26)]
5,1.34 µM and 1.36 µM,[dF][dK][dL][dK][dL][dR][dH][dW] [fklklrhw (PEPTIDE ID NO: 125)]
6,1.16 µM,[dL][dH][dL][dK][dI][dR][dY][dH] [lhlkiryh (PEPTIDE ID NO: 410)]
7,1.19 µM,[dY][dL][dK][dI][dR][dI][dH][dY] [ylkirihy (PEPTIDE ID NO: 256)]
8,1.39 µM and 1.51 µM,[dF][dK][dL][dH][dL][dR][dH][dW] [fklhlrhw (PEPTIDE ID NO: 126)]
9,0.65 µM and 1.02 µM,[dW][dK][dL][dW][dL][dR][dW] (not fully specified; printed as wklwlrw) [wklwlrw (PEPTIDE ID NO: 91)]
10,1.42 µM,[dH][dW][dR][dL][dK][dV][dR][dW] [hwrlkvrw (PEPTIDE ID NO: 266)]
11,1.43 µM,[dY][dW][dR][dL][dK][dV][dR][dW] [ywrlkvrw (PEPTIDE ID NO: 268)]
12,1.25 µM,[dH][dL][dK][dI][dR][dI][dH][dY] [hlkirihy (PEPTIDE ID NO: 259)]
13,1.22 µM and 1.54 µM,[dL][dR][dI][dR][dL][dH][dH][dF] [lrirlhhf (PEPTIDE ID NO: 146)]
14,0.66 µM,[dW][dW][dR][dV][dK][dL][dR][dW] [wwrvklrw (PEPTIDE ID NO: 195)]
15,1.51 µM,[dL][dK][dI][dR][dI][dH][dR][dH] [lkirihrh (PEPTIDE ID NO: 274)]
16,0.68 µM,[dV][dR][dW][dW][dK][dL][dR][dW] [vrwwklrw (PEPTIDE ID NO: 196)]
17,1.12 µM and 1.15 µM,[dF][dR][dI][dR][dI][dK][dH][dY] [fririkhy (PEPTIDE ID NO: 114)]
18,1.29 µM and 1.39 µM,[dL][dK][dI][dH][dI][dR][dH][dW] [lkihirhw (PEPTIDE ID NO: 148)]
19,1.46 µM,[dF][dR][dI][dR][dL][dR][dW] [frirlrw (PEPTIDE ID NO: 56)]
20,0.65 µM and 0.85 µM,[dL][dK][dI][dR][dI][dR][dY][dH] [lkiriryh (PEPTIDE ID NO: 194)]

row,"IC50, Tau40 assay (ThT)",Binder
1,1.15 µM and 1.2 µM,[dF][dR][dL][dK][dI][dR][dH][dW] [frlkirhw (PEPTIDE ID NO: 117)]
2,0.69 µM,[dW][dL][dK][dI][dR][dI][dH][dY] [wlkirihy (PEPTIDE ID NO: 198)]
3,1.25 µM,[dW][dA][dL][dK][dV][dR][dW] [walkvrw (PEPTIDE ID NO: 257)]
4,1.19 µM,[dW][dH][dL][dR][dL][dR][dH][dW] [whlrlrhw (PEPTIDE ID NO: 109)]
5,1.27 µM and 0.99 µM,[dW][dK][dV][dW][dV][dR]G[dW] (not fully specified (residue 7); printed as wkvwvrgw) [wkvwvrgw (PEPTIDE ID NO: 93)]
6,1.17 µM,[dW][dR][dL][dK][dT][dR][dW] [wrlktrw (PEPTIDE ID NO: 255)]
7,1.32 µM,[dF][dW][dR][dL][dK][dV][dR][dW] [fwrlkvrw (PEPTIDE ID NO: 261)]
8,1.28 µM,[dW][dR][dL][dR][dM][dH][dW] [wrlrmhw (PEPTIDE ID NO: 260)]
9,1.16 µM,[dE][dL][dK][dI][dR][dI][dH][dY] [elkirihy (PEPTIDE ID NO: 253)]
10,1.39 µM,[dW][dE][dL][dK][dV][dR][dW][dW] [welkvrww (PEPTIDE ID NO: 264)]
11,1.12 µM,[dL][dK][dI][dR][dI][dNle][dY] [lkiriuy (PEPTIDE ID NO: 251)]
12,1.12 µM and 1.21 µM,[dW][dI][dK][dI][dR][dW] [wikirw (PEPTIDE ID NO: 21)]
13,0.68 µM,[dW][dR][dL][dK][dV][dR][dW][dL] [wrlkvrwl (PEPTIDE ID NO: 197)]
14,1.41 µM,[dF][dR][dL][dR][dI][dW][dW] [frlriww (PEPTIDE ID NO: 423)]
15,1.48 µM,[dL][dK][dI][dR][dI][dA][dY] [lkiriay (PEPTIDE ID NO: 271)]
16,1.41 µM and 1.87 µM,[dL][dR][dI][dR][dI][dR][dF][dH] [lririrfh (PEPTIDE ID NO: 152)]
17,1.29 µM,[dW][dR][dL][dW][dI][dH][dW] [wrlwihw (PEPTIDE ID NO: 428)]
18,1.47 µM and 0.71 µM,[dR][dI][dR][dI][dR][dW] [ririrw (PEPTIDE ID NO: 75)]
19,1.29 µM and 1.11 µM,[dW][dR][dL][dR][dI][dH][dW][dW] [wrlrihww (PEPTIDE ID NO: 20)]
20,1.27 µM and 1.43 µM,[dY][dR][dV][dR][dI][dE][dW][dL] [yrvriewl (PEPTIDE ID NO: 159)]
